Data: paper PMC5561218

Key:
[1] = biological target: fibrinogen related-protein 30 (FBN30), insect cell-expressed recombinant (Anopheles gambiae); assay: non-reducing and reducing SDS-PAGE with western blot; 12% SDS-PAGE without or with beta-ME of culture medium of transfected Hi5 cells; FBN30 detected with anti-FBN30 antibody; covalent (disulfide) dimer
[2] = biological target: fibrinogen related-protein 30 (FBN30), insect cell-expressed recombinant (Anopheles gambiae); assay: SEC; concentrated Hi5 medium on a Superdex 200 10/300 GL column, PBS pH 7.4, 0.4 mL/min, calibrated with protein standards; FBN30 in the fractions quantified by ELISA with anti-FBN30; octamer of four disulfide-linked homodimers

fibrinogen related-protein 30 (FBN30), insect cell-expressed recombinant (natural protein)
stoichiometry N [1]: 2
stoichiometry N [2]: 8
